Assay results as given in patent US20180327500A1 (SYMPHOGEN A S, published 2018).

T1: Mouse blade 3
T1 construct: human/mouse chimera on transfected HEK293 cells; also called Mouse blade 3-IPT4
T1 MET ECD-SV5-GPI fusion: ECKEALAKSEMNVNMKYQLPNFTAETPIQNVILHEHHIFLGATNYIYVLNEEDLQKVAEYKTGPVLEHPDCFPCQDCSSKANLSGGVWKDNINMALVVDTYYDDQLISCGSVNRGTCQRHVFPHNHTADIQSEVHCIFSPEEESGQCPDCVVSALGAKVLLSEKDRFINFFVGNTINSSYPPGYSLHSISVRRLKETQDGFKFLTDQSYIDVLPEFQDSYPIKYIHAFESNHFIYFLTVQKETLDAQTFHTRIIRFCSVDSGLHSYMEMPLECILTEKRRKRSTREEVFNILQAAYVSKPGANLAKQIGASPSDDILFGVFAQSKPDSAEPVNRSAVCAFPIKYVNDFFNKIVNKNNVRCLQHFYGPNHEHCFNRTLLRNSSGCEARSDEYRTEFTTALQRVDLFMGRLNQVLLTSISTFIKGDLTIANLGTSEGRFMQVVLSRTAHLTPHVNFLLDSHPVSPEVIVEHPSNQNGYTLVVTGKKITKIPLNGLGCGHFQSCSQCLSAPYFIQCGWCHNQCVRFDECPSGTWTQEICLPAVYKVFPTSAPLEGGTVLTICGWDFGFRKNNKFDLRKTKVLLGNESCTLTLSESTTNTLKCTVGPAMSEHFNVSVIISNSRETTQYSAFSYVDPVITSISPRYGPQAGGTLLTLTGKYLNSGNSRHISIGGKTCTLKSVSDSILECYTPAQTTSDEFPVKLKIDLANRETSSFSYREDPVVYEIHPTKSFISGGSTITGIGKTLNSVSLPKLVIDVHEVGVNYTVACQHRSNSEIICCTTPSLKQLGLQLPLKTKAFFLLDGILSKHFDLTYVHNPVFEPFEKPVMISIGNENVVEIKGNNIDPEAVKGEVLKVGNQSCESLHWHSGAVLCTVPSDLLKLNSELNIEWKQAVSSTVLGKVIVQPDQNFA

T2: Mouse Blade 1-2
T2 construct: human/mouse chimera on transfected HEK293 cells; also called AA 25-162
T2 MET ECD-SV5-GPI fusion: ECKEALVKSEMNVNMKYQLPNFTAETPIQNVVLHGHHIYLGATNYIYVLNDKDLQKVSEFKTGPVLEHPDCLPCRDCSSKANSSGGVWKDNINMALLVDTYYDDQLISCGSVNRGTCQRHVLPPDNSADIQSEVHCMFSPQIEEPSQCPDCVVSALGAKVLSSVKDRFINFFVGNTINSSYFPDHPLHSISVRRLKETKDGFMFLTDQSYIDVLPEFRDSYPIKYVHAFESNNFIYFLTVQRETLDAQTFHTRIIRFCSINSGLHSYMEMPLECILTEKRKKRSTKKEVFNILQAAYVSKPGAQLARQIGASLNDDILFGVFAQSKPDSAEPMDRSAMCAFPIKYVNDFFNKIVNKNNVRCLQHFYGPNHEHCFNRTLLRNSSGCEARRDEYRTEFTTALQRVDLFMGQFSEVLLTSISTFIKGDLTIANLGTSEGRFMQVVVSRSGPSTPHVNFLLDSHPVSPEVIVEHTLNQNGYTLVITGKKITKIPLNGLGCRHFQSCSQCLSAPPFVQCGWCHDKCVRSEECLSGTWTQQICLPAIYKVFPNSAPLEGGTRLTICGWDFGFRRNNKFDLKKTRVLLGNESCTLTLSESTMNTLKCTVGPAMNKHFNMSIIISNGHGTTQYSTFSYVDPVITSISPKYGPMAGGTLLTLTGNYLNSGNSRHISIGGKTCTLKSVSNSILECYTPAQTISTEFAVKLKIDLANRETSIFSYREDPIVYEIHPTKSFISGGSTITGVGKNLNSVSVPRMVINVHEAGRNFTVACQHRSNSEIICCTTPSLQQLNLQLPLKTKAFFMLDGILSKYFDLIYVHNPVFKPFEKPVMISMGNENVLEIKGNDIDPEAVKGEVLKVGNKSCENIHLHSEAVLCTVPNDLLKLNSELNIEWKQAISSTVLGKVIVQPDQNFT


What was measured:
Mouse blade 3 = target: T1, Mouse blade 3; experiment: flow cytometry on transfected HEK293 cells;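 also: antibodies applied at 50 µg/ml, binding called specific when fluorescence exceeds the mean signal on a negative control chicken or mouse MET construct plus four SD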
Method: (§1) Cut-off values defined as the average fluorescence signal of all antibodies tested at 50 μg/ml to the negative control chicken or mouse MET construct+four standard deviations were employed to discriminate background binding from specific binding for the domain exchange or blade exchange constructs.

Mouse Blade 1-2 = target: T2, Mouse Blade 1-2; experiment: flow cytometry on transfected HEK293 cells;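 also: antibodies applied at 50 µg/ml, binding called specific when fluorescence exceeds the mean signal on a negative control chicken or mouse MET construct plus four SD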
Method: as §1

| binding result (Mouse blade 3) | binding result (Mouse Blade 1-2) | Binder |
| --- | --- | --- |
| no binding (tested: 50 µg/ml) | – | humanized antibody 9006 (antibody, human IgG1, kappa, V domains shown, also called Hu9006; hu9006) VH: QVQLVQSGSELKKPGASVKVSCKASGYTFTNFRMNWVKQAPGQGLKWMGWINTYTGEPTYVDDLKGRFVFSLDTSVSTAYLQISSLKAEDTAVYYCARKGIARAMDYWGQGTTVTVSS VL: DIVMTQSPDSLAVSLGERATINCKSSQSLLDSGNQKNYLAWYQQKPGQPPKLLIFGASTRESGVPDRFSGSGSGTDFTLTISSLQAEDVAVYYCQNDHSYPYTFGQGTKLEIKR |
| – | no binding (tested: 50 µg/ml) | humanized antibody 9338 (antibody, human IgG1, kappa, V domains shown, also called Hu9338; hu9338) VH: QVQLVQSGAEVKKPGSSVKVSCKASGYTFTSYWMHWVRQAPGQGLEWMGYINPSSGHIENNQKFKDRVTITADKSTSTAYMELSSLRSEDTAVYYCARGRFAYWGQGTLVTVSS VL: EIVLTQSPATLSLSPGERATLSCSASSSVSSGYLYWYQQKPGQAPRLLIYSTSNLASGIPARFSGSGSGTDFTLTISSLEPEDFAVYYCHQWSSYPFTFGSGTKLEIKR |
